14 molecules from patent US5501962, “Interleuken-3 (IL-3) human/murine hybrid polypeptides and recombinant production of the same” (G. D. Searle & Co., dated 1996) can be followed below.

Experiment [1] addresses IL-3 receptor (human) (UniProt P26951). The experiment is described as follows: competition with iodinated hIL-3 ligand (pMON 5966) on AML 193 1.3.9 cells.
Experiment [2] has the same target.
The target of experiment [3] is T1, IL-3 receptor (human, UniProt P26951).
T1 sequence: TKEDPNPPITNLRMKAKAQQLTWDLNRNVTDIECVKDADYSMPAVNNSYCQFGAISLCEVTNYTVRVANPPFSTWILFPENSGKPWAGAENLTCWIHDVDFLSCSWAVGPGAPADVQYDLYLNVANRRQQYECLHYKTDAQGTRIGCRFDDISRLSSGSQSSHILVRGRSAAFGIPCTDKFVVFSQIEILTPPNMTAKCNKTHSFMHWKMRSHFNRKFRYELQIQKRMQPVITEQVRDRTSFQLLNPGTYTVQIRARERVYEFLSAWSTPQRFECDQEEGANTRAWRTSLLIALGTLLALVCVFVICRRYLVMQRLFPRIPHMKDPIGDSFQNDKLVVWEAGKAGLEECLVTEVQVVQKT
The experiment is described as follows: competition with iodinated hIL-3 ligand (pMON 5966) on AML 193 1.3.9 cells. As to the method: These cells were further selected using biotin conjugated hIL-3 and FITC-avidin for repetitive fluorescence activated cell sorting (FACS) and were designated AML 193 1.3.9. This line was grown in IMDM supplemented with 5% FBS and 40 μM beta-mercaptoethanol and human IL-3 (1 to 4 ng/mL). The HL-60 cell line was obtained from ATCC and grown in RPMI 1640, 10% FBS and 40 μM beta-mercaptoethanol. Ligand for IL-3 receptor assays was derived from an E. coli expression vector encoding full length hIL-3 molecule (amino acids 1 to 133) having a 14 amino acid N-terminal extension. ([…][SEQ ID NO: 119]; designated as pMON 5966, est. MW 16,976). This construct contained two additional tyrosines which were essential for iodination to high-specific radioactivity without loss of biological activity. This ligand was radiolabeled with iodine-125 using an insoluble lactoperoxidase method (®Enzymobeads) and used following HPLC purification. […] Ligand for GM-CSF receptor assays was prepared by radiolabelling native GM-CSF with iodine-125 using the IODO-GEN method (Pierce Chemical) according to manufacturer's specifications.
For IL-3 receptor assays, AML 193 1.3.9 cells were incubated overnight in medium without growth factor. On the day of the assay the cells were washed 3 times with Hanks balanced salt solution, resuspended in assay buffer (IMDM, 5% FBS, 40 μM 2-ME and 0.1% BSA) and counted using a hemacytometer. Assay tubes contained the test compounds or inhibitors under study, 0.2% sodium azide, iodinated hIL-3 ligand (pMON 5966), 5–10×10^6 cells, and buffer in a total volume of 100 μL. Unlabelled hIL-3 (250 nM) was used to define non-specific binding, and each assay point was set up in triplicate. After incubation with gentle orbital agitation at 200 rpm for two hours at room temperature, 1 mL of ice-cold medium was added and the binding reaction was immediately terminated by centrifugation. The supernatant was removed by aspiration, and the tip of the tube containing the cell pellet was cut off and counted in a Micromedic gamma counter.

The target of experiment [4] is IL-3 receptor (human) (UniProt P26951). The experiment is described as follows: competition with iodinated hIL-3 ligand (pMON 5966) on AML 193 1.3.9 cells; this is the reference itself.
For experiment [5], the target named is T1, IL-3 receptor. Put plainly: cell-based or functional assay.

B1: pMON5980 (Met-Ala-15-125hIL-3) having an M1 substitution (ligand)
chain: MANCSSIVKEIIGKLPQPPLPLLDFNNLNGEDQDILMENNLRRPNLEAFNRAVKSLQNASAIESILKNLLPCLPLATAAPTRHPIHIKDGDWNEFRRKLTFYLKTLENAQAQQ
For B1, in the experiment with IL-3 receptor (human) [1], the IL-3 Receptor Binding Activity (relative to native hIL-3) (relative to native hIL-3) is below 0.01. For the same molecule, in the experiment with IL-3 receptor (human) [2], the Growth Factor Activity (AML 193 1.3 proliferation, 3H-thymidine; Relative Biological Activity) (relative to native hIL-3) was 0.03 and the Leukotriene Stimulating Activity (IL-3 mediated sulfidoleukotriene release from human mononuclear cells; Relative Biological Activity) (relative to native hIL-3) was below 0.01.

B2: pMON5974 (Met-15-125hIL-3 del aa29-35) having the M2 deletion shown in FIG. 19 (ligand)
chain: MNCSNMIDEIITHLKDFNNLNGEDQDILMENNLRRPNLEAFNRAVKSLQNASAIESILKNLLPCLPLATAAPTRHPIHIKDGDWNEFRRKLTFYLKTLENAQAQQ
As for B2, in the experiment with IL-3 receptor [3], the “IL-3 Receptor Binding Activity (relative to native hIL-3)” value was ≤ 0.01 relative to native hIL-3 and the binding result was “no binding”. In the experiment with IL-3 receptor (human) [2], this molecule gave a Growth Factor Activity (AML 193 1.3 proliferation, 3H-thymidine; Relative Biological Activity) (relative to native hIL-3) of 0.08 and a Leukotriene Stimulating Activity (IL-3 mediated sulfidoleukotriene release from human mononuclear cells; Relative Biological Activity) (relative to native hIL-3) below 0.01.

B3: pMON5977 (Met-15-125hIL-3) having an M3 substitution (ligand)
chain: MNCSNMIDEIITHLKQPPLPLLEPELKNGEDQDILMENNLRRPNLEAFNRAVKSLQNASAIESILKNLLPCLPLATAAPTRHPIHIKDGDWNEFRRKLTFYLKTLENAQAQQ
Consider B3, for which the IL-3 Receptor Binding Activity (relative to native hIL-3) (relative to native hIL-3) in the experiment with IL-3 receptor (human) [1] worked out at 0.19. In the experiment with IL-3 receptor (human) [2], this molecule registered a Growth Factor Activity (AML 193 1.3 proliferation, 3H-thymidine; Relative Biological Activity) (relative to native hIL-3) of 3.98 and a Leukotriene Stimulating Activity (IL-3 mediated sulfidoleukotriene release from human mononuclear cells; Relative Biological Activity) (relative to native hIL-3) of 0.31.

B4: pMON5970 (Met-15-125hIL-3) having an M5 substitution (ligand)
chain: MNCSNMIDEIITHLKQPPLPLLDFNNLNGEDQDSLRNKSLRRPNLEAFNRAVKSLQNASAIESILKNLLPCLPLATAAPTRHPIHIKDGDWNEFRRKLTFYLKTLENAQAQQ
In turn, B4 displayed an IL-3 Receptor Binding Activity (relative to native hIL-3) (relative to native hIL-3) in the experiment with IL-3 receptor (human) [1] below 0.01. In the experiment with IL-3 receptor (human) [2], this molecule displayed a Growth Factor Activity (AML 193 1.3 proliferation, 3H-thymidine; Relative Biological Activity) (relative to native hIL-3) of 0.04 and a Leukotriene Stimulating Activity (IL-3 mediated sulfidoleukotriene release from human mononuclear cells; Relative Biological Activity) (relative to native hIL-3) below 0.01.

B5: pMON5962 (Met-15-125hIL-3) having an M10 substitution (ligand)
chain: MNCSNMIDEIITHLKQPPLPLLDFNNLNGEDQDILMENNLRRPNLEAFNRAVKSLQNASAIESILKNLLPCLPTSANDPTRHPIHIKDGDWNEFRRKLTFYLKTLENAQAQQ
As for B5, the IL-3 Receptor Binding Activity (relative to native hIL-3) (relative to native hIL-3) in the experiment with IL-3 receptor (human) [1] came to 0.81. In the experiment with IL-3 receptor (human) [2], this molecule registered a Growth Factor Activity (AML 193 1.3 proliferation, 3H-thymidine; Relative Biological Activity) (relative to native hIL-3) of 1.26 and a Leukotriene Stimulating Activity (IL-3 mediated sulfidoleukotriene release from human mononuclear cells; Relative Biological Activity) (relative to native hIL-3) of 10.7.

B6: pMON5972 (Met-15-125hIL-3) having an M6 substitution (ligand)
chain: MNCSNMIDEIITHLKQPPLPLLDFNNLNGEDQDILMENNFRRVNLSKFVEAVKSLQNASAIESILKNLLPCLPLATAAPTRHPIHIKDGDWNEFRRKLTFYLKTLENAQAQQ
B6: the IL-3 Receptor Binding Activity (relative to native hIL-3) (relative to native hIL-3) in the experiment with IL-3 receptor (human) [1] turned out to be 0.08. Further, in the experiment with IL-3 receptor (human) [2], the Growth Factor Activity (AML 193 1.3 proliferation, 3H-thymidine; Relative Biological Activity) (relative to native hIL-3) stood at 0.2 and the Leukotriene Stimulating Activity (IL-3 mediated sulfidoleukotriene release from human mononuclear cells; Relative Biological Activity) (relative to native hIL-3) was 0.15.

B7: pMON5960 (Met-15-125hIL-3) having an M11 substitution (ligand)
chain: MNCSNMIDEIITHLKQPPLPLLDFNNLNGEDQDILMENNLRRPNLEAFNRAVKSLQNASAIESILKNLLPCLPLATAASALPPIHIKDGDWNEFRRKLTFYLKTLENAQAQQ
B7 registered an IL-3 Receptor Binding Activity (relative to native hIL-3) (relative to native hIL-3) in the experiment with IL-3 receptor (human) [1] below 0.01. In the experiment with IL-3 receptor (human) [2], this molecule came in with a Growth Factor Activity (AML 193 1.3 proliferation, 3H-thymidine; Relative Biological Activity) (relative to native hIL-3) of 0.13 and a Leukotriene Stimulating Activity (IL-3 mediated sulfidoleukotriene release from human mononuclear cells; Relative Biological Activity) (relative to native hIL-3) of 0.1.

B8: pMON5961 (Met-15-125hIL-3) having an M12 substitution (ligand)
chain: MNCSNMIDEIITHLKQPPLPLLDFNNLNGEDQDILMENNLRRPNLEAFNRAVKSLQNASAIESILKNLLPCLPLATAAPTRHGVFIRDGDWNEFRRKLTFYLKTLENAQAQQ
Take B8: the IL-3 Receptor Binding Activity (relative to native hIL-3) (relative to native hIL-3) with IL-3 receptor (human) [1] was 1.05. For the same molecule, in the experiment with IL-3 receptor (human) [2], the Growth Factor Activity (AML 193 1.3 proliferation, 3H-thymidine; Relative Biological Activity) (relative to native hIL-3) came out at 0.5 and the Leukotriene Stimulating Activity (IL-3 mediated sulfidoleukotriene release from human mononuclear cells; Relative Biological Activity) (relative to native hIL-3) worked out at 3.63.

B9: pMON5968 (Met-15-125hIL-3) having an M13 substitution (ligand)
chain: MNCSNMIDEIITHLKQPPLPLLDFNNLNGEDQDILMENNLRRPNLEAFNRAVKSLQNASAIESILKNLLPCLPLATAAPTRHPIHIKDLDEFRRKLTFYLKTLENAQAQQ
For the molecule B9, the “IL-3 Receptor Binding Activity (relative to native hIL-3)” value in the experiment with IL-3 receptor [3] was 0.25 relative to native hIL-3. Moreover, in the experiment with IL-3 receptor (human) [2], the Growth Factor Activity (AML 193 1.3 proliferation, 3H-thymidine; Relative Biological Activity) (relative to native hIL-3) turned out to be 0.06 and the Leukotriene Stimulating Activity (IL-3 mediated sulfidoleukotriene release from human mononuclear cells; Relative Biological Activity) (relative to native hIL-3) was determined as 0.59.

B10: (1-133)hIL-3 (ligand)
chain: APMTQTTSLKTSWVNCSNMIDEIITHLKQPPLPLLDFNNLNGEDQDILMENNLRRPNLEAFNRAVKSLQNASAIESILKNLLPCLPLATAAPTRHPIHIKDGDWNEFRRKLTFYLKTLENAQAQQTTLSLAIF
For B10, the IL-3 Receptor Binding Activity (relative to native hIL-3) (relative to native hIL-3) with IL-3 receptor (human) [4] came out at 1. In the experiment with IL-3 receptor (human) [2], this molecule registered a Growth Factor Activity (AML 193 1.3 proliferation, 3H-thymidine; Relative Biological Activity) (relative to native hIL-3) of 1 and a Leukotriene Stimulating Activity (IL-3 mediated sulfidoleukotriene release from human mononuclear cells; Relative Biological Activity) (relative to native hIL-3) of 1.

B11: pMON5973 (Met-15-125hIL-3) having an M7 substitution (ligand)
chain: MNCSNMIDEIITHLKQPPLPLLDFNNLNGEDQDILMENNLRRPNLEAFNRSQGEVDNASAIESILKNLLPCLPLATAAPTRHPIHIKDGDWNEFRRKLTFYLKTLENAQAQQ
For B11, in the experiment with IL-3 receptor [5], the “Growth Factor Activity (AML 193 1.3 proliferation, 3H-thymidine; Relative Biological Activity)” value is 0.2 relative to native hIL-3 and the “Leukotriene Stimulating Activity (IL-3 mediated sulfidoleukotriene release from human mononuclear cells; Relative Biological Activity)” value is ≤ 0.01 relative to native hIL-3.

B12: pMON5979 (Met-15-125hIL-3 ALA 101) having an M8 substitution (ligand)
chain: MNCSNMIDEIITHLKQPPLPLLDFNNLNGEDQDILMENNLRRPNLEAFNRAVKSLQPEDRYVIESILKNLLPCLPLATAAPTRHPIHIKAGDWNEFRRKLTFYLKTLENAQAQQ
In the case of B12, the “IL-3 Receptor Binding Activity (relative to native hIL-3)” value in the experiment with IL-3 receptor [3] was 1.21 relative to native hIL-3. Further, in the experiment with IL-3 receptor (human) [2], the Growth Factor Activity (AML 193 1.3 proliferation, 3H-thymidine; Relative Biological Activity) (relative to native hIL-3) came to 7.94 and the Leukotriene Stimulating Activity (IL-3 mediated sulfidoleukotriene release from human mononuclear cells; Relative Biological Activity) (relative to native hIL-3) was found to be 0.46.

B13: pMON5975 (Met-15-125hIL-3) having an M4 substitution (ligand)
chain: MNCSNMIDEIITHLKQPPLPLLDFNNLTDDEGPILMENNLRRPNLEAFNRAVKSLQNASAIESILKNLLPCLPLATAAPTRHPIHIKDGDWNEFRRKLTFYLKTLENAQAQQ
With B13, in the experiment with IL-3 receptor (human) [1], the IL-3 Receptor Binding Activity (relative to native hIL-3) (relative to native hIL-3) is below 0.01. In the experiment with IL-3 receptor (human) [2], this molecule had a Growth Factor Activity (AML 193 1.3 proliferation, 3H-thymidine; Relative Biological Activity) (relative to native hIL-3) of 0.04 and a Leukotriene Stimulating Activity (IL-3 mediated sulfidoleukotriene release from human mononuclear cells; Relative Biological Activity) (relative to native hIL-3) below 0.01.

B14: pMON5963 (Met-15-125hIL-3 Ala 101) having an M9 substitution (ligand)
chain: MNCSNMIDEIITHLKQPPLPLLDFNNLNGEDQDILMENNLRRPNLEAFNRAVKSLQNASAIKSNLQKLNSCLPLATAAPTRHPIHIKAGDWNEFRRKLTFYLKTLENAQAQQ
Molecule B14 returned an IL-3 Receptor Binding Activity (relative to native hIL-3) (relative to native hIL-3) with IL-3 receptor (human) [1] of 1.32. In the experiment with IL-3 receptor (human) [2], this molecule showed a Growth Factor Activity (AML 193 1.3 proliferation, 3H-thymidine; Relative Biological Activity) (relative to native hIL-3) of 5.01 and a Leukotriene Stimulating Activity (IL-3 mediated sulfidoleukotriene release from human mononuclear cells; Relative Biological Activity) (relative to native hIL-3) of 12.9.
